Measurements taken from article PMC4634408.

Biological target: thrombin (human alpha-thrombin as purchased) (Homo sapiens) (UniProt P00734+P00734)
Test: electrochemical impedance spectroscopy
Conditions: 5'-HS-C6 thiol spacer; EIS with 2.5 mM [Fe(CN)6]3-/4- in phosphate buffer (PB) pH 7.0 with 0.1 M K2SO4; pH 6.6-7.8 and 15-40 C also tested (best pH 7.0, 35 C); standard incubation …

Sequence: TTTGGTTGGTGTGGTTGG [ThA thrombin aptamer (15-mer with dT3 spacer)]
- binding signal: -28 % dRct/Rct0
